Measured values: US20260193326A1
Positions count from the first letter of the chain named.

B1: A4-D9 (bispecific antibody)
chain: VQLQESGGGLVHSGGSLRLSCAASGSMFSLNTMGWYRQAPGKQRELVATITRGGGTSYADSVKGRFTISRDNAKNTVYLQMNSLRPEDTAVYYCHVDELRQSSWTTSNLWGQGTQVTVSSGGGGSGGGGSGGGGSVQLQESGGGLVQPGGSLRLSCAASGSRFSLNTMGWYRQAPGKQRELVATVTRGGSTNYADFVKGRFTISRDNAKNTVYLQMNSLRPEDTAVYYCHVDELRESGWTTSNLWGQGTQVTVSSGGGGSGGGGSGGGGSVQLQESGGGLVQPGGSLRLSCAASGSRFSLNTMGWYRQAPGKQRELVATVTRGGSTNYADFVKGRFTISRDNAKNTVYLQMNSLRPEDTAVYYCHVDELRESGWTTSNLWGQGTQVTVSSGGGGSGGGGSGGGGSVQLQESGGGLVQTGGSLRLSCAASGRAFSLNTMGWYRQAPGKWRELVATVTRGGSTNYAGSVKGRFTISRDNAKNTVYLQMNNLRPEDTAVYYCHVDEVRESSWTTSNLWGQGTQVTVSS
B2: A4-D6 (bispecific antibody)
chain: VQLQESGGGLVQTGGSLRLSCAASGRAFSLNTMGWYRQAPGKWRELVATVTRGGSTNYAGSVKGRFTISRDNAKNTVYLQMNNLRPEDTAVYYCHVDEVRESSWTTSNLWGQGTQVTVSSGGGGSGGGGSGGGGSVQLQESGGGLVQTGGSLRLSCAASGRAFSLNTMGWYRQAPGKWRELVATVTRGGSTNYAGSVKGRFTISRDNAKNTVYLQMNNLRPEDTAVYYCHVDEVRESSWTTSNLWGQGTQVTVSSGGGGSGGGGSGGGGSVQLQESGGGLVQPGGSLRLSCAASGSIFTINSMGWYRQAPGKWRELVATVTRGGNTNYANSVKGRFTISRDNAKNTVYLQMNTLRPEDTAVYYCHLDEVRDSSWTTSNLWGQGTQVTVSSGGGGSGGGGSGGGGSVQLQESGGGLVQPGGSLRLSCAASGSIFSINSMGWYRQAPGKWRELVATVTRGGSTNYANSVKGRFTISRDNAKNTVYLQMNTLRPEDTAVYYCHLDEVRDSSWTTSNLWGQGTQVTVSS
B3: A4-D8 (bispecific antibody)
chain: VQLQESGGGLVQPGGSLRLSCAASGSRFSLNTMGWYRQAPGKQRELVATVTRGGSTNYADSVKGRFTISRDNAKNTVYLQMNSLRPEDTAVYYCHVDELRESGWTTSNLWGQGTQVTVSSGGGGSGGGGSGGGGSVQLQESGGGLVQPGGSLRLSCAASGSRFSLNTMGWYRQAPGKQRELVATVTRGGSTNYADFVKGRFTISRDNAKNTVYLQMNSLRPEDTAVYYCHVDELRESGWTTSNLWGQGTQVTVSSGGGGSGGGGSGGGGSVQLQESGGGLVHSGGSLRLSCAASGSMFSLNTMGWYRQAPGKQRELVATITRGGGTSYADSVKGRFTISRDNAKNTVYLQMNSLRPEDTAVYYCHVDELRQSSWTTSNLWGQGTQVTVSSGGGGSGGGGSGGGGSVQLQESGGGLVQPGGSLRLSCAASGSRFSLNTMGWYRQAPGKQRELVATVTRGGSTNYADFVKGRFTISRDNAKNTVYLQMNSLRPEDTAVYYCHVDELRESGWTTSNLWGQGTQVTVSS
B4: A4-D7 (bispecific antibody)
chain: VQLQESGGGLVQTGGSLRLSCAASGRAFSLNTMGWYRQAPGKWRELVATVTRGGSTNYAGSVKGRFTISRDNAKNTVYLQMNNLRPEDTAVYYCHVDEVRESSWTTSNLWGQGTQVTVSSGGGGSGGGGSGGGGSVQLQESGGGLVQPGGSLRLSCAASGSIFTINSMGWYRQAPGKWRELVATVTRGGNTNYANSVKGRFTISRDNAKNTVYLQMNTLRPEDTAVYYCHLDEVRDSSWTTSNLWGQGTQVTVSSGGGGSGGGGSGGGGSVQLQESGGGLVQPGGSLRLSCAASGSIFSINSMGWYRQAPGKWRELVATVTRGGSTNYANSVKGRFTISRDNAKNTVYLQMNTLRPEDTAVYYCHLDEVRDSSWTTSNLWGQGTQVTVSSGGGGSGGGGSGGGGSVQLQESGGGLVQTGGSLRLSCAASGRAFSLNTMGWYRQAPGKWRELVATVTRGGSTNYAGSVKGRFTISRDNAKNTVYLQMNNLRPEDTAVYYCHVDEVRESSWTTSNLWGQGTQVTVSS
B5: A4-D5 (protein)
chain: VQLQESGGGLVQPGGSLRLSCVASGSSFSINTMGWYRRAPGKQRELVATVTRDGSTNYANSVKGRFTISRDNAKNTVYLQMNSLRPEDTAVYYCHVDEVRQSSWTTSNLWGQGTQVTVSSGGGGSGGGGSGGGGSVQLQESGGGLVQPGGSLRLSCVASGSSFSINTMGWYRRAPGKQRELVATVTRDGSTNYANSVKGRFTISRDNAKNTVYLQMNSLRPEDTAVYYCHVDEVRQSSWTTSNLWGQGTQVTVSSGGGGSGGGGSGGGGSVQLQESGGGLVQPGGSLRLSCVASGSSFSINTMGWYRQAPGKQRELVATVTRDGSTNYANSVKGRFTISRDNAKNTVYLQMNSLRPEDTAVYYCHVDEVRQSSWTTSNLWGQGTQVTVSSGGGGSGGGGSGGGGSVQLQESGGGLVQPGGSLRLSCVASGSSFSINTMGWYRRAPGKQRELVATVTRDGSTNYANSVKGRFTISRDNAKNTVYLQMNSLRPEDTAVYYCHVDEVRQSSWTTSNLWGQGTQVTVSS
B6: A4-D2 (VHH)
chain: VQLQESGGGLVQAGGSLRLSCAASGRGFSINTMGWYRQAPGKQRELVAAVTRGGTTNYADSVKGRFTISRDNAKNTVYLQMNSLRPEDTAVYYCHVDEVRQSSWTTSNLWGQGTQVTVSSGGGGSGGGGSGGGGSVQLQESGGGLVQAGGSLRLSCAASGRGFSINTMGWYRQAPGKQRELVAAVTRGGTTNYADSVKGRFTISRDNAKNTVYLQMNSLRPEDTAVYYCHVDEVRQSSWTTSNLWGQGTQVTVSSGGGGSGGGGSGGGGSVQLQESGGGLVQAGGSLRLSCAASGRGFSINTMGWYRQAPGKQRELVAAVTRGGTTNYADSVKGRFTISRDNAKNTVYLQMNSLRPEDTAVYYCHVDEVRQSSWTTSNLWGQGTQVTVSSGGGGSGGGGSGGGGSVQLQESGGGLVQAGGSLRLSCAASGRGFSINTMGWYRQAPGKQRELVAAVTRGGTTNYADSVKGRFTISRDNAKNTVYLQMNSLRPEDTAVYYCHVDEVRQSSWTTSNLWGQGTQVTVSS
B7: A4-D4 (VHH)
chain: B6 chain with V11A, A148P, V281A, V416A
B8: A4-D3 (VHH)
chain: B6 chain with V11A, V146A, V281A, A418P

target: AAV9 (adeno-associated virus serotype 9); assay: SPR, AAV on CM5 chip

**Q.** B1 was tested. Which Kd did it give?
**A.** 0.745 nM

**Q.** And the koff?
**A.** 1.94e-05 s⁻¹

**Q.** And the kon?
**A.** 26000 M⁻¹ s⁻¹

**Q.** How did the Kd turn out when B2 was run?
**A.** 0.155 nM

**Q.** And the koff?
**A.** 3.4e-06 s⁻¹

**Q.** And the kon?
**A.** 21900 M⁻¹ s⁻¹

**Q.** For B3, which Kd is on record?
**A.** 0.313 nM

**Q.** What about the koff of the same binder?
**A.** 1.32e-05 s⁻¹

**Q.** And the kon?
**A.** 42200 M⁻¹ s⁻¹

**Q.** With B4 as the binder, how does the Kd read?
**A.** 0.658 nM

**Q.** What about the koff of the same binder?
**A.** 9.4e-06 s⁻¹

**Q.** And the kon?
**A.** 14300 M⁻¹ s⁻¹

**Q.** For B5, which Kd is on record?
**A.** 0.117 nM

**Q.** And the koff?
**A.** 4.3e-06 s⁻¹

**Q.** What about the kon of the same binder?
**A.** 36900 M⁻¹ s⁻¹

**Q.** With B6 as the binder, how does the Kd read?
**A.** 0.304 nM

**Q.** And the koff?
**A.** 9e-06 s⁻¹

**Q.** And the kon?
**A.** 29600 M⁻¹ s⁻¹

**Q.** How did the Kd turn out when B7 was run?
**A.** 0.073 nM

**Q.** What about the koff of the same binder?
**A.** 2.1e-06 s⁻¹

**Q.** And the kon?
**A.** 28800 M⁻¹ s⁻¹

**Q.** What does the source list for B8?
**A.** Kd: 0.0707 nM; koff: 3.2e-06 s⁻¹; kon: 45300 M⁻¹ s⁻¹

target: AAV8 (adeno-associated virus serotype 8); assay: SPR, AAV on CM5 chip

**Q.** For B1, which Kd is on record?
**A.** 0.318 nM

**Q.** What about the koff of the same binder?
**A.** 9.9e-06 s⁻¹

**Q.** What about the kon of the same binder?
**A.** 31100 M⁻¹ s⁻¹

**Q.** With B2 as the binder, how does the Kd read?
**A.** 1.02 nM

**Q.** And the koff?
**A.** 1.63e-05 s⁻¹

**Q.** What about the kon of the same binder?
**A.** 16000 M⁻¹ s⁻¹

**Q.** Which Kd does the source give for B3 here?
**A.** 0.228 nM

**Q.** And the koff?
**A.** 1.1e-05 s⁻¹

**Q.** And the kon?
**A.** 48200 M⁻¹ s⁻¹

**Q.** Which results are given for B4?
**A.** Kd: 1.41 nM; koff: 1.79e-05 s⁻¹; kon: 12700 M⁻¹ s⁻¹

**Q.** Which results are given for B5?
**A.** Kd: 0.0836 nM; koff: 5e-06 s⁻¹; kon: 59800 M⁻¹ s⁻¹

**Q.** For B6, which Kd is on record?
**A.** 0.0821 nM

**Q.** And the koff?
**A.** 3.6e-06 s⁻¹

**Q.** And the kon?
**A.** 43900 M⁻¹ s⁻¹

**Q.** What does the source list for B7?
**A.** Kd: 0.0802 nM; koff: 1.7e-06 s⁻¹; kon: 21200 M⁻¹ s⁻¹

**Q.** What does the source list for B8?
**A.** Kd: 0.0363 nM; koff: 1.5e-06 s⁻¹; kon: 41400 M⁻¹ s⁻¹

target: AAV5 (adeno-associated virus serotype 5); assay: SPR, AAV on CM5 chip

**Q.** How did the Kd turn out when B1 was run?
**A.** 0.1 nM

**Q.** And the koff?
**A.** 2.3e-06 s⁻¹

**Q.** And the kon?
**A.** 22900 M⁻¹ s⁻¹

**Q.** Which results are given for B2?
**A.** Kd: 0.273 nM; koff: 1.18e-05 s⁻¹; kon: 43300 M⁻¹ s⁻¹

**Q.** For B3, which Kd is on record?
**A.** 1.49 nM

**Q.** What about the koff of the same binder?
**A.** 1.96e-05 s⁻¹

**Q.** And the kon?
**A.** 13200 M⁻¹ s⁻¹

**Q.** With B4 as the binder, how does the Kd read?
**A.** 0.216 nM

**Q.** What about the koff of the same binder?
**A.** 4.9e-06 s⁻¹

**Q.** And the kon?
**A.** 22700 M⁻¹ s⁻¹

**Q.** With B5 as the binder, how does the Kd read?
**A.** 0.318 nM

**Q.** And the koff?
**A.** 1.34e-05 s⁻¹

**Q.** What about the kon of the same binder?
**A.** 42100 M⁻¹ s⁻¹

**Q.** For B6, which Kd is on record?
**A.** 0.0996 nM

**Q.** What about the koff of the same binder?
**A.** 5.7e-06 s⁻¹

**Q.** And the kon?
**A.** 57200 M⁻¹ s⁻¹

**Q.** Which Kd does the source give for B7 here?
**A.** 0.657 nM

**Q.** What about the koff of the same binder?
**A.** 1.73e-05 s⁻¹

**Q.** And the kon?
**A.** 26300 M⁻¹ s⁻¹

**Q.** What does the source list for B8?
**A.** Kd: 0.209 nM; koff: 3.6e-06 s⁻¹; kon: 17300 M⁻¹ s⁻¹
